Test results taken from article PMC8528726, “Kinetics of H2O2-driven catalysis by a lytic polysaccharide monooxygenase from the fungus Trichoderma reesei” (The Journal of Biological Chemistry, 2021).

Substrate: O=C1O[C@H]([C@@H](O)CO)C(O)=C1O
Experiment: purified protein
Type: biochemical, Trichoderma reesei
Details: 50 mM sodium acetate pH 5.0, 25 °C
[1] = ascorbate peroxidase reaction, co-substrate H2O2, true value extrapolated over [H2O2], ping-pong, insufficient AscA saturation, treat with caution

B1: TrAA9A (Trichoderma reesei QM6a) (protein)
chain: HGHINDIVINGVWYQAYDPTTFPYESNPPIVVGWTAADLDNGFVSPDAYQNPDIICHKNATNAKGHASVKAGDTILFQWVPVPWPHPGPIVDYLANCNGDCETVDKTTLEFFKIDGVGLLSGGDPGTWASDVLISNNNTWVVKIPDNLAPGNYVLRHEIIALHSAGQANGAQNYPQCFNIAVSGSGSLQPSGVLGTDLYHATDPGVLINIYTSPLNYIIPGPTVVSGLPTSVAQGSSAATATASATVPGGGSGPTSRTTTTARTTQASSRPSSTPPATTSAPAGGPTQTLYGQCGGSGYSGPTRCAPPATCSTLNPYYAQCLN
notes: saturated with copper
- Km [1]: 140 µM
- kcat [1]: 2.1 s⁻¹
- K0.5 (cellulose peroxygenase reaction, priming reductant, H2O2 and BMCC present, varied: cofactor): 0.1 mM
